Measured values: paper PMC10179326

B1: 2GLE (analogue 2 - GLE tripeptide conjugate) (structured_DNA)
DNA: GGGTTGGGTGTGGGTTGGG
modifications: alpha-deoxyguanosine at positions 1,12; tripeptide GLE conjugated at T4 (N3 position, equivalent of T3 in TBA)

Biological target: alpha-thrombin (Homo sapiens, UniProt P00734;P00734 328-363;364-622)
Experiment: MST; potassium phosphate pH 7.5, 20 nM aptamer; EMSA: 10 mM sodium cacodylate pH 7.2, 100 mM KCl in D2O, incubation 25 C, 12% native gel in 1x TBE + 10 mM KCl at 10 C; MST: 10 mM Tris-HCl, 100 mM potassium ph

Binder	Kd [nM]
GGTTGGTGTGGTTGG (structured_DNA) [TBA (15-mer thrombin binding aptamer)]	19.5
B1	2.7
